B1: CPEB3 Ribozyme (parent)
chain: GGGGGCCACAGCAGAAGCGUUCACGUCGCGGCCCCUGUCAGAUUCUGGUGAAUCUGCGAAUUCUGCUGU

Variants of: B1
Test: self-cleavage, relative activity (ratio to wild type); higher = more cleavage; co-transcriptional

Row | Variant | self-cleavage
1 | GGGGGCCACAGCAGAAGCGUUCACGUCGCGGCCCCUGUCAGCCUCUGGUGAAUCUGCGAAUUCUGCUGU [A42C U43C] | 0.777
2 | GGGGGCCACAGCAGAAGCGUUCACGUCGCGGCCCCUGUCAUAUUCUGGUGAAUCUGCGAAUUCUGCGGU [G41U U67G] | 0.865
3 | GGGGGCCACAGCAGAAGCGUUCACGUCGCGGCCCCUGUCAGCUUCUGGUGAAUCUGCGAAUUCUUCUGU [A42C G65U] | 0.574
4 | GGGGGCCACAGCAGAAGCGUUCACGUCGCGGCCCCUGUCAGCUUCUGGUGAAUCUGCGAAUUCUCCUGU [A42C G65C] | 0.474
5 | GGGGGCCACAGCAGAAGCGUUCACGUCGCGGCCCCUGUCAGCUUCUUGUGAAUCUGCGAAUUCUGCUGU [A42C G47U] | 0.958
6 | GGGGGCCACAGCAGAAGCGUUCACGUCGCGGCCCCUGUCAGCUUCUCGUGAAUCUGCGAAUUCUGCUGU [A42C G47C] | 0.977
7 | GGGGGCCACAGCAGAAGCGUUCACGUCGCGGCCCCUGUCAGCUUCUGGUGAAUCUACGAAUUCUGCUGU [A42C G56A] | 0.812
8 | GGGGGCCACAGCAGAAGCGUUCACGUCGCGGCCCCUGUCAGCUUCUGGUGAAUCUGCGAAGUCUGCUGU [A42C U61G] | 0.518
9 | GGGGGCCACAGCAGAAGCGUUCACGUCGCGGCCCCUGUCAGCUUCUGCUGAAUCUGCGAAUUCUGCUGU [A42C G48C] | 0.851
10 | GGGGGCCACAGCAGAAGCGUUCACGUCGCGGCCCCUGUCAGCUUCUGUUGAAUCUGCGAAUUCUGCUGU [A42C G48U] | 0.988
11 | GGGGGCCACAGCAGAAGCGUUCACGUCGCGGCCCCUGUCAGCUUCUGAUGAAUCUGCGAAUUCUGCUGU [A42C G48A] | 0.965
12 | GGGGGCCACAGCAGAAGCGUUCACGUCGCGGCCCCUGUCAGCUUCUGGUGAAUCUGCGAAUUUUGCUGU [A42C C63U] | 0.926
13 | GGGGGCCACAGCAGAAGCGUUCACGUCGCGGCCCCUGUCAGCUUCUGGUGAAUCUGCGCAUUCUGCUGU [A42C A59C] | 0.528
14 | GGGGGCCACAGCAGAAGCGUUCACGUCGCGGCCCCUGUCAGCUUCUGGUGAAUCUGCGGAUUCUGCUGU [A42C A59G] | 0.961
15 | GGGGGCCACAGCAGAAGCGUUCACGUCGCGGCCCCUGUCAGCUUCUGGUGAAUCUGCGUAUUCUGCUGU [A42C A59U] | 0.633
16 | GGGGGCCACAGCAGAAGCGUUCACGUCGCGGCCCCUGUCAGCUUCUGGUGAAGCUGCGAAUUCUGCUGU [A42C U53G] | 1.04
17 | GGGGGCCACAGCAGAAGCGUUCACGUCGCGGCCCCUGUCAGCUUCUGGUGAACCUGCGAAUUCUGCUGU [A42C U53C] | 0.939
18 | GGGGGCCACAGCAGAAGCGUUCACGUCGCGGCCCCUGUCAGCUUCUGGUGAAUCUGCAAAUUCUGCUGU [A42C G58A] | 0.925
19 | GGGGGCCACAGCAGAAGCGUUCACGUCGCGGCCCCUGUCAGCUUCUGGUGAAUCUGCUAAUUCUGCUGU [A42C G58U] | 1.01
20 | GGGGGCCACAGCAGAAGCGUUCACGUCGCGGCCCCUGUCAGGUUCUGGUGGAUCUGCGAAUUCUGCUGU [A42G A51G] | 0.894

Row | Variant | self-cleavage
21 | GGGGGCCACAGCAGAAGCGUUCACGUCGCGGCCCCUGUCAGGUUCUGGUGAAUCUGCGAUUUCUGCUGU [A42G A60U] | 0.329
22 | GGGGGCCACAGCAGAAGCGUUCACGUCGCGGCCCCUGUCAGGUUCUGGUGAAUCUGCGACUUCUGCUGU [A42G A60C] | 0.405
23 | GGGGGCCACAGCAGAAGCGUUCACGUCGCGGCCCCUGUCAGCUUCUGGUGAAUCUGCGAGUUCUGCUGU [A42C A60G] | 0.771
24 | GGGGGCCACAGCAGAAGCGUUCACGUCGCGGCCCCUGUCAGCUUCUGGUGAAUCUGCGACUUCUGCUGU [A42C A60C] | 0.503
25 | GGGGGCCACAGCAGAAGCGUUCACGUCGCGGCCCCUGUCAGCUUCUGGUGAAUCUGCGAAUUCCGCUGU [A42C U64C] | 0.637
26 | GGGGGCCACAGCAGAAGCGUUCACGUCGCGGCCCCUGUCAGCUUCUGGUGAAUCUGCGAAUUCUGCGGU [A42C U67G] | 0.919
27 | GGGGGCCACAGCAGAAGCGUUCACGUCGCGGCCCCUGUCAGCUUCCGGUGAAUCUGCGAAUUCUGCUGU [A42C U46C] | 0.895
28 | GGGGGCCACAGCAGAAGCGUUCACGUCGCGGCCCCUGUCAGCUUCAGGUGAAUCUGCGAAUUCUGCUGU [A42C U46A] | 0.967
29 | GGGGGCCACAGCAGAAGCGUUCACGUCGCGGCCCCUGUCAGCUUCUGGUUAAUCUGCGAAUUCUGCUGU [A42C G50U] | 0.932
30 | GGGGGCCACAGCAGAAGCGUUCACGUCGCGGCCCCUGUCAUAUUCUGGUGAAUCUGCGAAUUCUGCUGC [G41U U69C] | 0.697
31 | GGGGGCCACAGCAGAAGCGUUCACGUCGCGGCCCCUGUCAGCUUCUGGUGCAUCUGCGAAUUCUGCUGU [A42C A51C] | 0.832
32 | GGGGGCCACAGCAGAAGCGUUCACGUCGCGGCCCCUGUCAGCUUCUGGUGUAUCUGCGAAUUCUGCUGU [A42C A51U] | 0.952
33 | GGGGGCCACAGCAGAAGCGUUCACGUCGCGGCCCCUGUCAGGUUCUGGUGAGUCUGCGAAUUCUGCUGU [A42G A52G] | 0.825
34 | GGGGGCCACAGCAGAAGCGUUCACGUCGCGGCCCCUGUCAGCUUCUGGCGAAUCUGCGAAUUCUGCUGU [A42C U49C] | 0.892
35 | GGGGGCCACAGCAGAAGCGUUCACGUCGCGGCCCCUGUCAGGUUGUGGUGAAUCUGCGAAUUCUGCUGU [A42G C45G] | 0.92
36 | GGGGGCCACAGCAGAAGCGUUCACGUCGCGGCCCCUGUCAGGUUCUGGUGAAUAUGCGAAUUCUGCUGU [A42G C54A] | 0.708
37 | GGGGGCCACAGCAGAAGCGUUCACGUCGCGGCCCCUGUCAGCUUCUGGUGAAUCUGCGAAUUCUGAUGU [A42C C66A] | 0.57
38 | GGGGGCCACAGCAGAAGCGUUCACGUCGCGGCCCCUGUCAGCUUCUGGUGAAUAUGCGAAUUCUGCUGU [A42C C54A] | 0.707
39 | GGGGGCCACAGCAGAAGCGUUCACGUCGCGGCCCCUGUCAGCUUCUGGUGAAUUUGCGAAUUCUGCUGU [A42C C54U] | 0.822

Reference: the RNAGym collection of RNA variant scans (doi:10.7554/elife.80360)
